Biological target: TmCad1(EC12-cyto), partial Tenebrio molitor cadherin from extracellular domain 12 through the end of the cytoplasmic domain, expressed on insect cells (Tenebrio molitor)
Assay: cell-based or functional assay

Substance “Cry3Aa protoxin purified from sporulated cultures of Bacillus thuringiensis var. tenebrionis (from UniProt P0A379 1-644)” has a cytotoxicity (propidium iodide staining of GFP-positive transfected Hi5 cells, flow cytometry) of 25% and a cytotoxicity (propidium iodide staining of GFP-positive transfected S2 cells, flow cytometry) of 40%.
